For this assay, the target named is actin filament (barbed end) (UniProt P68135). In words: seeded pyrene-actin polymerization.

One may read the Kd as the constant that tells how readily two partners part at equilibrium. A higher Kd goes with a looser complex.

As for “CPαβ(ΔC34) (from UniProt P47753 1-286; P47757-2 1-272) (complex)”, the Kd amounted to 33.2 nM.

For the origin of these results see publication PMC2991585.
